Earlier results in article PMC4860950.

Key:
CD2 (Mus musculus) = CD2 (Mus musculus) (UniProt P08920)
CD244 (Homo sapiens) = CD244 (Homo sapiens) (UniProt Q9BZW8)
CD2 (Homo sapiens) = CD2 (Homo sapiens) (UniProt P06729)
Sequence of UniProt P06729 (P06729 25-209): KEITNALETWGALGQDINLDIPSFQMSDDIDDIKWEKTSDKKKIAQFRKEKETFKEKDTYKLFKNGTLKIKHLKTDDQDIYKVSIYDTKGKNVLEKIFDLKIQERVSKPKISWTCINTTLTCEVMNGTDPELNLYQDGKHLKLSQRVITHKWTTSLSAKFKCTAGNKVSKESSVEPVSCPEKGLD

Sequence of UniProt Q9BZW8 (Q9BZW8 22-229): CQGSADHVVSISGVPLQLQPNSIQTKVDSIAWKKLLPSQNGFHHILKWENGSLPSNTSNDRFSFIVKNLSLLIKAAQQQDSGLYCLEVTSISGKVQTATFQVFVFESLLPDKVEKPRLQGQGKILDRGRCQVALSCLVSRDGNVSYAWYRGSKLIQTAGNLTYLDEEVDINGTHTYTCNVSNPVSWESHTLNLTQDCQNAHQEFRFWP
Sequence of UniProt P08920 (P08920 23-203): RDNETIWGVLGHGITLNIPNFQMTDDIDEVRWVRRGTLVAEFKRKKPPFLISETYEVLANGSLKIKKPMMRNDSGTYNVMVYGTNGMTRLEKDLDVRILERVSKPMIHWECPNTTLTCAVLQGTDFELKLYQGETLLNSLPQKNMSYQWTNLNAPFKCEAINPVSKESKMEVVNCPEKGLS

In the case of CD48 (from UniProt P18181), the Kd (CD2 (Mus musculus)) is given as 90 µM.
For CD48 (from UniProt P09326), the Kd (CD244 (Homo sapiens)) is given as 8 µM and the Kd (CD2 (Homo sapiens)) is given as 100 µM.
